In EP4480965A1, “TRANSFERRIN RECEPTOR-BINDING MOLECULES, CONJUGATES THEREOF AND THEIR USES TO PREVENT OR TREAT CNS DISEASES” (Vect-Horus, priority 2023, dated 2024):

Test system: murine SOD1 mRNA
Assay: CNS knock-down of SOD1 mRNA after single ICV administration (RT-qPCR)
Format: in vivo, C57Bl/6 mice
Details: seven days
Procedure: VHH-siSOD 1m conjugates were assessed for their potential to mediate murine SOD1 mRNA knock-down in the brain and spinal cord following intracerebroventicular (ICV) administration in wild-type C57Bl/6 mice. Wild-type C57Bl/6 mice (4 per group) were injected a single ICV dose (right lateral ventricle, 5-10 µL at 0.75 µL/min) of 100 µg (siRNA molar equivalent) of PBS vehicle (control), unconjugated siSOD1m-5'VP or the indicated VHH-siSOD1m-5'VP conjugates. Seven days after injection, tissue samples including total brain (right hemisphere), brain regions (from the left hemisphere), spinal cord and the liver were withdrawn, snap-frozen in 10 vol. ofNucleoProtect RNA stabilization reagent (Macherey-Nagel) and stored at -20°C. Frozen tissue samples were homogenized in QUIAzol lysis reagent using a Precellys Evolution tissue homogenizer equipped with a Cryolys Evolution cooling system (Bertin Instruments). Total RNA was extracted from tissue homogenates using the rNeasy 96 QIAcube HT Kit (QIAGEN) in a QIAcube HT system. RNA samples were analyzed and dosed using a Fragment Analyzer RNA kit in a Fragment Analyzer system (Agilent). Relative RNA expression levels were quantified by RT-qPCR using the TaqMan™ Fast Universal PCR Master Mix (2X) no AmpErase™ UNG kit (Applied Biosystems) and commercially available TaqMan™ probes for murine SOD1 and RpL13 genes (Applied Biosystems). Expression data were analyzed using the ΔΔCq method normalized to the expression of the reference RpL13 gene, based on raw quantification cycle (Cq) values (Bustin et al.). The results are expressed as means ± standard error of the mean (SEM) and are presented as mRNA levels relative to the control animals injected with PBS.
Biodistribution of VHH-siRNA conjugates and CNS knock-down of the target SOD1 mRNAVHH-siSODlm conjugates were evaluated using in situ hybridization methods (ISH) on brain and spinal cord samples following single ICV administration in wild-type mice. […]

B1: C5-siSOD1m-5'VP: TfR-binding VHH-siRNA conjugate wherein VHH is C5 (conjugate)
VHH: EVQLVESGGGVVQPGGSLKLSCVASGTDFSINFIRWYRQAPGKQREFVAGFTATGNTNYADSMKGRFTISRDNTKNAVYLQIDSLKPEDTAVYYCYMLDKWGQGTQVTVSSAAAEQKLISEEDLNGAAHHHHHHGS
Question: How did the “SOD1 mRNA knock-down (KD) in brain and spinal cord” value (single ICV dose 100 µg (siRNA molar equivalent)) turn out when B1 was run?
Answer: 80-90%

Question: What about the “SOD1 mRNA KD in brain regions of the left hemisphere” value (single ICV dose 100 µg) of the same molecule?
Answer: 60-90%

Question: What about the “downregulation of SOD1 mRNA in all regions tested of the brain ipsilateral (right) hemisphere” value (single ICV dose 100 µg) of the same molecule?
Answer: 70-90%
